Measurements from US20200207857A1.

Experiments:
[1] = molecular target: Recombinant protein Claudin 18.2; assay: ELISA on plate-coated recombinant Claudin 18.2, OD450; Kd table under the graph, no unit in the table, unit from the x axis log[antibody] nM
[2] = molecular target: Recombinant protein Claudin 18.2; assay: ELISA-based assay on Claudin 18.2, y axis RLU; Kd table under the graph, no unit in the table, unit from the x axis log[antibody] nM
[3] = molecular target: Recombinant protein Claudin 18.2; assay: as above; remark: listed apart in the source
[4] = molecular target: Recombinant protein Claudin 18.2; assay: ELISA on plate-coated recombinant Claudin 18.2, OD370; Kd table under the graph, no unit in the table, unit from the x axis log[antibody] nM

Chain of Recombinant protein Claudin 18.2 (chain, as listed by the source limits assumed, form in doubt): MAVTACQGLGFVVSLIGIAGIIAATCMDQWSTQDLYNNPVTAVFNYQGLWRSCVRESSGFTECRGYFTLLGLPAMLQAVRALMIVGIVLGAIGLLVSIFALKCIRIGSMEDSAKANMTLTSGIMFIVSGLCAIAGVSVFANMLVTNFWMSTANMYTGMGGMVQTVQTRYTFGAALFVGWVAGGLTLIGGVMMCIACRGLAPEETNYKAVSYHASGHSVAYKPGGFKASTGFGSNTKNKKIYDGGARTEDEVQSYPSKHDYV

| Binder | Kd [1] [nM] | Kd [2] [nM] | further results |
| --- | --- | --- | --- |
| h5C9oa (antibody, V domains shown) VH: EVQLVESGGGLVQPGGSLRLSCAVSGYTFSMNWVRQAPGKGLEWVAWINMYTGEPTYADDFKGRFTISRDDSKNTLYLQMNSLRAEDTAVYYCARLYNGNSLDYWGQGTLVTVSS VL: DIQMTQSPSSLSASVGDRVTITCKSSQSLLNSGNQKSYLTWYQQKPGKAPKLLIYWASTLESGVPSRFSGSGSGTDYTLTISSLQPEDFATYYCQNAYAFPFTFGQGTKVEIK | 0.0894 | – | – |
| h5C9oc (antibody, V domains shown) VH: EVQLVESGGGLVQPGGSLRLSCAVSGYTFSMNWVRQAPGKGLEWVAWINMYTGEPTYADDFKGRFTISRDDSKNTLYLQMNSLRAEDTAVYYCARLYNGNSLDYWGQGTLVTVSS VL: DIQMTQSPSSLSASVGDRVTITCKSSQSLLNSGNQKSYLTWYQQKPGKAPKLLIYWASTLESGVPSRFSGSGSGTDYTLTISSLQPEDFATYYCQNGYSFPFTFGQGTKVEIK | 0.0848 | – | – |
| Anti-CLDN 18.2-5C9oai (humanized antibody h5C9oai) (antibody, human IgG1, V domains shown) VH: EVQLVESGGGLVQPGGSLRLSCAVSGYTFSMNWVRQAPGKGLEWVAWINMYTGEPTYADDFKGRFTISRDDSKNTLYLQMNSLRAEDTAVYYCARLARGNSMDYWGQGTLVTVSS VL: DIQMTQSPSSLSASVGDRVTITCKSSQSLLNSGNQKSYLTWYQQKPGKAPKLLIYWASTLESGVPSRFSGSGSGTDYTLTISSLQPEDFATYYCQNAYSFPFTFGQGTKVEIK | – | – | Kd [3]: 0.196 nM |
| h5C9oaf (antibody, V domains shown) VH: EVQLVESGGGLVQPGGSLRLSCAVSGYTFSMNWVRQAPGKGLEWVAWINMYTGEPTYADDFKGRFTISRDDSKNTLYLQMNSLRAEDTAVYYCARLFNGNSLDYWGQGTLVTVSS VL: DIQMTQSPSSLSASVGDRVTITCKSSQSLLNSGNQKSYLTWYQQKPGKAPKLLIYWASTLESGVPSRFSGSGSGTDYTLTISSLQPEDFATYYCQNAYYFPFTFGQGTKVEIKR | – | 0.162 | – |
| h5C9og (antibody, V domains shown) VH: EVQLVESGGGLVQPGGSLRLSCAVSGYTFSMNWVRQAPGKGLEWVAWINMYTGEPTYADDFKGRFTISRDDSKNTLYLQMNSLRAEDTAVYYCARLYRGNSLDYWGQGTLVTVSS VL: DIQMTQSPSSLSASVGDRVTITCKSSQSLLNSGNQKSYLTWYQQKPGKAPKLLIYWASTLESGVPSRFSGSGSGTDYTLTISSLQPEDFATYYCQNSYSFPFTFGQGTKVEIK | 0.0884 | – | – |
| h5C9oe (antibody, V domains shown) VH: EVQLVESGGGLVQPGGSLRLSCAVSGYTFSMNWVRQAPGKGLEWVAWINMYTGEPTYADDFKGRFTISRDDSKNTLYLQMNSLRAEDTAVYYCARLYNGNSLDYWGQGTLVTVSS VL: DIQMTQSPSSLSASVGDRVTITCKSSQSLLNSGNQKSYLTWYQQKPGKAPKLLIYWASTLESGVPSRFSGSGSGTDYTLTISSLQPEDFATYYCQNAYRFPFTFGQGTKVEIK | 0.0878 | – | – |
| Anti-CLDN 18.2-5C9oag (humanized antibody h5C9oag) (antibody, human IgG1, V domains shown) VH: EVQLVESGGGLVQPGGSLRLSCAVSGYTFSMNWVRQAPGKGLEWVAWINMYTGEPTYADDFKGRFTISRDDSKNTLYLQMNSLRAEDTAVYYCARLARGNSIDYWGQGTLVTVSS VL: DIQMTQSPSSLSASVGDRVTITCKSSQSLLNSGNQKSYLTWYQQKPGKAPKLLIYWASTLESGVPSRFSGSGSGTDYTLTISSLQPEDFATYYCQNAYSFPFTFGQGTKVEIK | – | – | Kd [3]: 0.196 nM |
| h5C9oam (antibody, human IgG1, kappa, V domains shown) VH: EVQLVESGGGLVQPGGSLRLSCAVSGYTFSMNWVRQAPGKGLEWVAWINMYTGEPTYADDFKGRFTISRDDSKNTLYLQMNSLRAEDTAVYYCARLARGNSIDYWGQGTLVTVSS VL: DIQMTQSPSSLSASVGDRVTITCKSSQSLLNSGNQKSYLTWYQQKPGKAPKLLIYWASTLESGVPSRFSGSGSGTDYTLTISSLQPEDFATYYCQNAYFFPFTFGQGTKVEIKR | – | 0.172 | – |
| h5C9oad (antibody, V domains shown) VH: EVQLVESGGGLVQPGGSLRLSCAVSGYTFSMNWVRQAPGKGLEWVAWINMYTGEPTYADDFKGRFTISRDDSKNTLYLQMNSLRAEDTAVYYCARLYRGNSLDYWGQGTLVTVSS VL: DIQMTQSPSSLSASVGDRVTITCKSSQSLLNSGNQKSYLTWYQQKPGKAPKLLIYWASTLESGVPSRFSGSGSGTDYTLTISSLQPEDFATYYCQNAYYFPFTFGQGTKVEIK | – | 0.175 | – |
| h5C9od (antibody, V domains shown) VH: EVQLVESGGGLVQPGGSLRLSCAVSGYTFSMNWVRQAPGKGLEWVAWINMYTGEPTYADDFKGRFTISRDDSKNTLYLQMNSLRAEDTAVYYCARLYNGNSLDYWGQGTLVTVSS VL: DIQMTQSPSSLSASVGDRVTITCKSSQSLLNSGNQKSYLTWYQQKPGKAPKLLIYWASTLESGVPSRFSGSGSGTDYTLTISSLQPEDFATYYCQNAYWFPFTFGQGTKVEIK | 0.0876 | – | – |
| h5C9oi (antibody, V domains shown) VH: EVQLVESGGGLVQPGGSLRLSCAVSGYTFSMNWVRQAPGKGLEWVAWINMYTGEPTYADDFKGRFTISRDDSKNTLYLQMNSLRAEDTAVYYCARMYNGNSLDYWGQGTLVTVSS VL: DIQMTQSPSSLSASVGDRVTITCKSSQSLLNSGNQKSYLTWYQQKPGKAPKLLIYWASTLESGVPSRFSGSGSGTDYTLTISSLQPEDFATYYCQNSYSFPFTFGQGTKVEIK | 0.0868 | – | Kd [3]: 0.316 nM |
| h5C9oah (antibody, V domains shown) VH: EVQLVESGGGLVQPGGSLRLSCAVSGYTFSMNWVRQAPGKGLEWVAWINMYTGEPTYADDFKGRFTISRDDSKNTLYLQMNSLRAEDTAVYYCARSSRGNGFDYWGQGTLVTVSS VL: DIQMTQSPSSLSASVGDRVTITCKSSQSLLNSGNQKSYLTWYQQKPGKAPKLLIYWASTLESGVPSRFSGSGSGTDYTLTISSLQPEDFATYYCQNAYSFPFTFGQGTKVEIK | – | – | Kd [3]: 0.236 nM |
| 5G7 (antibody, V domains shown) VH: KVQLQESGPELVRPGTSVKVSCKASKYAFTNYLIEWIKQRPGQGLEWIGMINPGSDGSHYNEKFKGKATLTADKSSSTAYMQLSSLTSDDSAVYFCARVGYGNSFAYWGQGTLVTVSA VL: MTQDELSLTVTAGEKVTLSCKSSQSLLNSGNQRNYLTWYQQKKGQPPKLLIYWASTRESGVPDRLTGSGSGTDFTLTISGVQAEDLAVYYCQNAYYYPFTFGSGTKLEIK | – | – | Kd [4]: 0.293 nM |
| 14B7 (antibody, V domains shown) VH: KVKLQESGPELVKPGASVKIPCKASGYTFTDYKMDWVKQSHGKSLEWIGDINPNNGGTIYNQKFKGKATLTVDRSSSTAYMELRSLTSEDTAVYYCARSYYGNSLAYWGQGTLVTVSA VL: DIVMTQDELSLTVTAGEKVTMSCKSSQSLLNSGNQKNYLTWYQQKPGLPPKLLIYWASTRESGVPDRFTGSGSGTDFTLTISSVQAEDLAVYYCQNNYIYPLTFGAGTKLELK | – | – | Kd [4]: 0.2 nM |

Second part, led by results:

| Kd [1] [nM] | Kd [2] [nM] | Binder | further results |
| --- | --- | --- | --- |
| – | 0.164 | h5C9oab (antibody, V domains shown) VH: EVQLVESGGGLVQPGGSLRLSCAVSGYTFSMNWVRQAPGKGLEWVAWINMYTGEPTYADDFKGRFTISRDDSKNTLYLQMNSLRAEDTAVYYCARLYNGNSLDYWGQGTLVTVSS VL: DIQMTQSPSSLSASVGDRVTITCKSSQSLLNSGNQKSYLTWYQQKPGKAPKLLIYWASTLESGVPSRFSGSGSGTDYTLTISSLQPEDFATYYCQNAYYFPFTFGQGTKVEIK | – |
| 0.103 | – | h5C9of (antibody, V domains shown) VH: EVQLVESGGGLVQPGGSLRLSCAVSGYTFSMNWVRQAPGKGLEWVAWINMYTGEPTYADDFKGRFTISRDDSKNTLYLQMNSLRAEDTAVYYCARLYNGNSLDYWGQGTLVTVSS VL: DIQMTQSPSSLSASVGDRVTITCKSSQSLLNSGNQKSYLTWYQQKPGKAPKLLIYWASTLESGVPSRFSGSGSGTDYTLTISSLQPEDFATYYCQNSYSFPFTFGQGTKVEIK | – |
| 0.0802 | – | h5C9oh (antibody, V domains shown) VH: EVQLVESGGGLVQPGGSLRLSCAVSGYTFSMNWVRQAPGKGLEWVAWINMYTGEPTYADDFKGRFTISRDDSKNTLYLQMNSLRAEDTAVYYCARLYRGNSLDYWGQGTLVTVSS VL: DIQMTQSPSSLSASVGDRVTITCKSSQSLLNSGNQKSYLTWYQQKPGKAPKLLIYWASTLESGVPSRFSGSGSGTDYTLTISSLQPEDFATYYCQNAYEFPFTFGQGTKVEIK | Kd [3]: 0.201 nM |
| – | 0.161 | h5C9oak (antibody, human IgG1, kappa, V domains shown) VH: EVQLVESGGGLVQPGGSLRLSCAVSGYTFSMNWVRQAPGKGLEWVAWINMYTGEPTYADDFKGRFTISRDDSKNTLYLQMNSLRAEDTAVYYCARSSRGNGFDYWGQGTLVTVSS VL: DIQMTQSPSSLSASVGDRVTITCKSSQSLLNSGNQKSYLTWYQQKPGKAPKLLIYWASTLESGVPSRFSGSGSGTDYTLTISSLQPEDFATYYCQNAYYFPFTFGQGTKVEIKR | – |
| 0.0777 | – | h5C9oj (antibody, V domains shown) VH: EVQLVESGGGLVQPGGSLRLSCAVSGYTFSMNWVRQAPGKGLEWVAWINMYTGEPTYADDFKGRFTISRDDSKNTLYLQMNSLRAEDTAVYYCARLYNGNALDYWGQGTLVTVSS VL: DIQMTQSPSSLSASVGDRVTITCKSSQSLLNSGNQKSYLTWYQQKPGKAPKLLIYWASTLESGVPSRFSGSGSGTDYTLTISSLQPEDFATYYCQNAYFFPFTFGQGTKVEIK | Kd [3]: 0.276 nM |
| – | 0.173 | h5C9oaj (antibody, human IgG1, kappa, V domains shown) VH: EVQLVESGGGLVQPGGSLRLSCAVSGYTFSMNWVRQAPGKGLEWVAWINMYTGEPTYADDFKGRFTISRDDSKNTLYLQMNSLRAEDTAVYYCARLARGNSIDYWGQGTLVTVSS VL: DIQMTQSPSSLSASVGDRVTITCKSSQSLLNSGNQKSYLTWYQQKPGKAPKLLIYWASTLESGVPSRFSGSGSGTDYTLTISSLQPEDFATYYCQNAYYFPFTFGQGTKVEIKR | – |
| – | 0.198 | h5C9oal (antibody, human IgG1, kappa, V domains shown) VH: EVQLVESGGGLVQPGGSLRLSCAVSGYTFSMNWVRQAPGKGLEWVAWINMYTGEPTYADDFKGRFTISRDDSKNTLYLQMNSLRAEDTAVYYCARLARGNSMDYWGQGTLVTVSS VL: DIQMTQSPSSLSASVGDRVTITCKSSQSLLNSGNQKSYLTWYQQKPGKAPKLLIYWASTLESGVPSRFSGSGSGTDYTLTISSLQPEDFATYYCQNAYYFPFTFGQGTKVEIKR | – |
